The values below come from PMC3347502.

As usually defined, the stoichiometry N is the number of molecules, sites or subunits per partner or assembly.

This experiment concerns the target long-chain neurotoxin NTII/I. In words: NMR titration.

Substance “α7ED/C116S/DTES (extracellular domain of human α7 nicotinic acetylcholine receptor with Cys116Ser an (domain or fragment)” had a stoichiometry N of 2.
